Assay results published in article PMC7360965 (The EMBO Journal, 2020).
Ends that are not written are not given here.

biological target: F-actin (filamentous actin), actin purified from chicken breast (Gallus gallus) (chicken (Gallus gallus), UniProt P68139 1-377); experiment: co-sedimentation; conditions: both partners purified

Row | Binder | Kd [nM]
1 | MGVADLIKKFESIS (not fully specified (N-terminus); also: FAM label, position not given here, source: synthetic peptide (custom synthesized, LifeTein, USA)) [FAM-lifeAct-14 peptide (carboxy-terminal truncated version of lifeAct)] | 1200
2 | Human UTRN-ABD (amino acids 1-261) H29A (domain or fragment, source: E. coli Rosetta DE3, purified (His-Trap, Superdex-200)) MAKYGEHEASPDNGQNEFSDIIKSRSDEANDVQKKTFTKWINARFSKSGKPPINDMFTDLKDGRKLLDLLEGLTGTSLPKERGSTRVHALNNVNRVLQVLHQNNVELVNIGGTDIVDGNHKLTLGLLWSIILHWQVKDVMKDVMSDLQQTNSEKILLSWVRQTTRPYSQVNVLNFTTSWTDGLAFNAVLHRHKPDLFSWDKVVKMSPIERLEHAFSKAQTYLGIEKLLDPEDVAVQLPDKKSIIMYLTSLFEVLPQQVTID | 2800
3 | MGVADLIKKFESISKEE (also: FAM label, position not given here, also called lifeAct peptide; source: synthetic peptide (custom synthesized, LifeTein, USA)) [FAM-lifeAct-17 peptide (full-length lifeAct)] | 2200

Results, then the binder that gave them:

Row | Kd [nM] | Binder
4 | > 100000 | Human UTRN-ABD (amino acids 1-261) V87D (domain or fragment, also called UTRN-V87D; source: E. coli Rosetta DE3, purified (His-Trap, Superdex-200)) MAKYGEHEASPDNGQNEFSDIIKSRSDEHNDVQKKTFTKWINARFSKSGKPPINDMFTDLKDGRKLLDLLEGLTGTSLPKERGSTRDHALNNVNRVLQVLHQNNVELVNIGGTDIVDGNHKLTLGLLWSIILHWQVKDVMKDVMSDLQQTNSEKILLSWVRQTTRPYSQVNVLNFTTSWTDGLAFNAVLHRHKPDLFSWDKVVKMSPIERLEHAFSKAQTYLGIEKLLDPEDVAVQLPDKKSIIMYLTSLFEVLPQQVTID
5 | 55000 | Human UTRN-ABD (amino acids 1-261) N109A (domain or fragment, source: E. coli Rosetta DE3, purified (His-Trap, Superdex-200)) MAKYGEHEASPDNGQNEFSDIIKSRSDEHNDVQKKTFTKWINARFSKSGKPPINDMFTDLKDGRKLLDLLEGLTGTSLPKERGSTRVHALNNVNRVLQVLHQNNVELVAIGGTDIVDGNHKLTLGLLWSIILHWQVKDVMKDVMSDLQQTNSEKILLSWVRQTTRPYSQVNVLNFTTSWTDGLAFNAVLHRHKPDLFSWDKVVKMSPIERLEHAFSKAQTYLGIEKLLDPEDVAVQLPDKKSIIMYLTSLFEVLPQQVTID
6 | 38000 | Human UTRN-ABD (amino acids 1-261) I22D (domain or fragment, source: E. coli Rosetta DE3, purified (His-Trap, Superdex-200)) MAKYGEHEASPDNGQNEFSDIDKSRSDEHNDVQKKTFTKWINARFSKSGKPPINDMFTDLKDGRKLLDLLEGLTGTSLPKERGSTRVHALNNVNRVLQVLHQNNVELVNIGGTDIVDGNHKLTLGLLWSIILHWQVKDVMKDVMSDLQQTNSEKILLSWVRQTTRPYSQVNVLNFTTSWTDGLAFNAVLHRHKPDLFSWDKVVKMSPIERLEHAFSKAQTYLGIEKLLDPEDVAVQLPDKKSIIMYLTSLFEVLPQQVTID
